Patent US9061070B2, “Treating stroke and other diseases without inhibiting N-type calcium channels” (NoNO, Inc., priority 2007, dated 2015)
Like-named read-outs stand apart in the source and are kept apart here. Where no end group is shown, it is not given here. [ ]: non-standard residue; d: D form. Tle = CC(C)(C)[C@H](N)C(=O)O; Nva = CCC[C@H](N)C(=O)O

How the values were obtained:
[1] = molecular target: N-type calcium channels (Mus musculus, UniProt O55017); experiment: Whole-cell patch clamp recordings of calcium currents in dorsal root ganglion neurons; format: cell-based, Swiss mice
Chain of N-type calcium channels (O55017 whole entry): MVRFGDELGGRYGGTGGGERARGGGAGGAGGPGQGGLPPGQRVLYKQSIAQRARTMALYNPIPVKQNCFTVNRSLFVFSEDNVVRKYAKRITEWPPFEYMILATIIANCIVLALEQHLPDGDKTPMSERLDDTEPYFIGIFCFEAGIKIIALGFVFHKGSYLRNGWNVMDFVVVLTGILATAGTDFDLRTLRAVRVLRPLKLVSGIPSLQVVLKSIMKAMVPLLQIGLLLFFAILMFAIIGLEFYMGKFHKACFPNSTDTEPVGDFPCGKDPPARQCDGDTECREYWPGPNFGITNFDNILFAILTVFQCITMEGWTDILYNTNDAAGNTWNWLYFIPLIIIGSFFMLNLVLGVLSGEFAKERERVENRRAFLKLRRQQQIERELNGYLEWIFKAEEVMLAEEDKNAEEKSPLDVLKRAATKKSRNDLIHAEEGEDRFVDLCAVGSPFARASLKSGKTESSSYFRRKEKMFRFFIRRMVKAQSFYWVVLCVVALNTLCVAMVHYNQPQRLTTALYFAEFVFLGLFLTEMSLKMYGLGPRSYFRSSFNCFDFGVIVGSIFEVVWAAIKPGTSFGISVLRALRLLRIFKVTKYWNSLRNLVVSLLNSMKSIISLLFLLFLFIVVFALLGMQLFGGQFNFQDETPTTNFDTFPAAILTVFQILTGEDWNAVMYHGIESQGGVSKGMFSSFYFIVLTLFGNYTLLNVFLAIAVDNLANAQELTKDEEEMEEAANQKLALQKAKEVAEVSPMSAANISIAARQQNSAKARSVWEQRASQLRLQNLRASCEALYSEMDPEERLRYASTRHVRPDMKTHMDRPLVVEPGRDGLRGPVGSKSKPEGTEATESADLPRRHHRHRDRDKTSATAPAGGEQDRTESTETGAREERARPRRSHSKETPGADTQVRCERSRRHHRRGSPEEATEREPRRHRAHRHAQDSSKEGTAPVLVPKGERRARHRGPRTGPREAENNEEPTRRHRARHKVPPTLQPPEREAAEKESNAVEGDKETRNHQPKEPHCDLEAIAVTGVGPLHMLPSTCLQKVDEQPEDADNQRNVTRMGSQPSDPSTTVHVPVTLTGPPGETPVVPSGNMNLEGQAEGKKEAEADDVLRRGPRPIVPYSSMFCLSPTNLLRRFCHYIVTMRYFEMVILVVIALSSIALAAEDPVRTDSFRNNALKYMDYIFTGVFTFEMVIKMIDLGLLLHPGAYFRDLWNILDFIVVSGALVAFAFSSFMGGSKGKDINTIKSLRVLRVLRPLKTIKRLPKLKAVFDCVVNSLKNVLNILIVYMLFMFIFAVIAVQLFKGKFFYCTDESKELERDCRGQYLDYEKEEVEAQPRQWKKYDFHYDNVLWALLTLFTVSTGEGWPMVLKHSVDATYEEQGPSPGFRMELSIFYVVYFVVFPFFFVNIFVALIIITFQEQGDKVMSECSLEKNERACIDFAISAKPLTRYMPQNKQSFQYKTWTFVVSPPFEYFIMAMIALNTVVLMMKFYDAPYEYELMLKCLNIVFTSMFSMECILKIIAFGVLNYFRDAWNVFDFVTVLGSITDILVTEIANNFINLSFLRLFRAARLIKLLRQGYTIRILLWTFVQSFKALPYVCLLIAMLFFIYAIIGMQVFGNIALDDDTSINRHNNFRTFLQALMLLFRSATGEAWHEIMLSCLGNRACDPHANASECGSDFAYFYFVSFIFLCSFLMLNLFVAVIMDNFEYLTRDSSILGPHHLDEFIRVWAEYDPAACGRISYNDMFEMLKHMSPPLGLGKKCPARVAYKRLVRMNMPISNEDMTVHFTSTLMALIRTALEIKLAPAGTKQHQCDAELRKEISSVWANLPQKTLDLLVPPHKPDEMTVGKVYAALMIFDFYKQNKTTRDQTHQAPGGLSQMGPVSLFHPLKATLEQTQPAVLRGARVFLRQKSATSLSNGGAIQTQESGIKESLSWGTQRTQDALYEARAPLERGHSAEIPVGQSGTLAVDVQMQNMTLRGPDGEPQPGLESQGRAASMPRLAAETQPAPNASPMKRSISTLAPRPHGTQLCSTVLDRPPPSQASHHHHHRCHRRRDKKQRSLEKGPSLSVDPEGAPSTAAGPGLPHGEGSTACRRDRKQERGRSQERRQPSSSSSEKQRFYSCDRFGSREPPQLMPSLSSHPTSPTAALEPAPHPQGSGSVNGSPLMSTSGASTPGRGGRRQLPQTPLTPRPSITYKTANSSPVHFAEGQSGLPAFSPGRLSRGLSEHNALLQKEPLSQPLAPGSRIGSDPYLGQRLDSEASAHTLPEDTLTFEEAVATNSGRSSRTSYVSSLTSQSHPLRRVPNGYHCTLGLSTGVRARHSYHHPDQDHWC
Chain of N-type calcium channels (O08532 25-956 partner limits assumed): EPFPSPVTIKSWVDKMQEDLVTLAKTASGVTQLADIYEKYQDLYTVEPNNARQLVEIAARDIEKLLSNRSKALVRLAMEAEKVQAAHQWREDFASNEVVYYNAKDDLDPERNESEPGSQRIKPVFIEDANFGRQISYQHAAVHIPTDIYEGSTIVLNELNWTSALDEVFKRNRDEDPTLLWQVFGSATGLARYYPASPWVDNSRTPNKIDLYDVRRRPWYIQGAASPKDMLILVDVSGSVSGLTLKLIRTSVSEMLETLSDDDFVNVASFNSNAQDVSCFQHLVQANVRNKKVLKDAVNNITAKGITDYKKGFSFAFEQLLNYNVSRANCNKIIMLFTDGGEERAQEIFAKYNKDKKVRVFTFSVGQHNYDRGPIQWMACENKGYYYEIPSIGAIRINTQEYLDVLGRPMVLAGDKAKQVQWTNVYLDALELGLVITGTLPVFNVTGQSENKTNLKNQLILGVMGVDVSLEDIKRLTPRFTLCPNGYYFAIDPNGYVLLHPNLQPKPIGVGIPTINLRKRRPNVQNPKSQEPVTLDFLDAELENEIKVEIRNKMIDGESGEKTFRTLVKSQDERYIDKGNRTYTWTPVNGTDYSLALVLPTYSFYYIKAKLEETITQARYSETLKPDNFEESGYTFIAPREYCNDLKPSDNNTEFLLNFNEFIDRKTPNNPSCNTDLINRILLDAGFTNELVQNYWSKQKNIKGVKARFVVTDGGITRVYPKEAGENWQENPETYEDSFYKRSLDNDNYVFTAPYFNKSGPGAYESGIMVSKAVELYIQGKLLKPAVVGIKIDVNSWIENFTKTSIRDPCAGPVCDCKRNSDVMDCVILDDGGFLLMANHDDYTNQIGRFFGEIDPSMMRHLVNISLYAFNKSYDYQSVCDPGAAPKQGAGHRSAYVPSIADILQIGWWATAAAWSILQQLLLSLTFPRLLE
Chain of N-type calcium channels (O08532 957-1103 partner limits assumed): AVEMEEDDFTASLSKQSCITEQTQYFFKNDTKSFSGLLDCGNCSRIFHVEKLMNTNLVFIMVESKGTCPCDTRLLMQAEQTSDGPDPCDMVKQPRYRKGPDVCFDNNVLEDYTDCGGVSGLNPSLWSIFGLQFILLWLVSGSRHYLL
Chain of N-type calcium channels (P54285 whole entry partner): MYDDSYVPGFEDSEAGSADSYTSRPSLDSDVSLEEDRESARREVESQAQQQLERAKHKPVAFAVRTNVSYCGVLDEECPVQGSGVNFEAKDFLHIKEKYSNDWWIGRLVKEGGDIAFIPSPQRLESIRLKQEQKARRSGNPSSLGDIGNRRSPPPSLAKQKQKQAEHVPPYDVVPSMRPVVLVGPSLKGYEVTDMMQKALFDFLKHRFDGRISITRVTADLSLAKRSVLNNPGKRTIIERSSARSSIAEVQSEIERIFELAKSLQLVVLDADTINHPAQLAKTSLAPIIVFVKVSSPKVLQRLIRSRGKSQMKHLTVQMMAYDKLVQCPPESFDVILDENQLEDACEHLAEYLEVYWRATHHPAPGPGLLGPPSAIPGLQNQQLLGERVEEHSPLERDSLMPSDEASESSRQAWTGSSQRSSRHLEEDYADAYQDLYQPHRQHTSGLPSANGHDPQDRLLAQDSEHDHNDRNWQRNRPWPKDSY

[2] = cited from earlier work
[3] = system: pial 3 vessel occlusion (P3VO) model of stroke; experiment: Pial vessel occlusion (P3VO) model of permanent ischemia; format: in vivo, Sprague Dawley rats; conditions: for reduction of infarct size: single dose 3 nmol/g one hour after initiating ischemia, FIG. 3
[4] = system: MCAO model of stroke; conditions: previously tested; cited from earlier work
[5] = molecular target: N-type Ca channels (Homo sapiens, UniProt Q00975); format: binding; conditions: 10 μM peptide
[6] = peptide at 100 μM, mean+/-s.e.m., DRG neurons
[7] = 3 nMol/g i.v. one hour after occlusion, 24 h, FIG. 8

## YGRKKRRQRRRALSSIESDV (Synthetic peptide - 1994 Tat-NR2B9c K to A) [Peptide 1994]
[1]; FIG. 2, peptide at 100 μM
  inhibition of N-type calcium channel activity (in words): significant improvement in channel activity over TAT alone although still displayed some reduction
[1]; FIG. 2, peptide at 100 μM, listed as 1994 Tat-NR2B9c K to A
  inhibition of N-type calcium channel activity (in words): no significant inhibition
[1]; [6]
  Ca2+ current shown as a percentage (normalized to current before peptide): 77+/−1.8%

## NCCCC[C@H](N[C@@H](CCc1ccccc1)C(=O)O)C(=O)N1CCC[C@H]1C(=O)O [Prinivil ® (lininopril), lininopril]
[2]
  halflife: crossing, 12 hr

## YGRKKRRQRRRKLSSIETDX (YGRKKRRQRRRKLSSIETD[Nva]) [Peptide 1975]
[3]; [7]
  infarct size (percent of hemisphere): some reduction in infarct size

## YGRKKRRQRRRKLSSIESDX [1977] (YGRKKRRQRRRKLSSIESD[Tle]) [Peptide 1977]
[1]; [6]
  Ca2+ current shown as a percentage (normalized to current before peptide): 65+/−5.1%

## YGRKKRRQRRRKLSSIESDX [1976] (YGRKKRRQRRRKLSSIESD[Nva]) [Peptide 1976]
[1]; [6]
  Ca2+ current shown as a percentage (normalized to current before peptide): 66+/−3.4%

## YGRKKRRQRRR [Peptide 1990, reference compound]
[1]
  Ca2+ current shown as a percentage (normalized to current before peptide): 57+/−1.6%

## YGRKKRRQRRRKLSSIEXDV (YGRKKRRQRRRKLSSIE[L‑2‑amino‑3‑ureidopropionic acid]DV) [Peptide 1978]
[3]; rat, in vivo, iv
  infarct size (percent of hemisphere): some reduction in infarct size

## N[C@@H](Cc1ccc(O)c(O)c1)C(=O)O [Levodopa]
[2]
  halflife: halflife = 1.5 hrs

## FGRKKRRQRRRKLSSIESDV (also: fluorescent label, place not given here (F-Tat-NR2B9c)) [Peptide 1993]
[1]; FIG. 2, peptide at 100 μM
  inhibition of N-type calcium channel activity (in words): no significant inhibition
[1]; [6]
  Ca2+ current shown as a percentage (normalized to current before peptide): 91+/−1.6%
[3]
  reduction of infarct size: equally effective in reducing infarct size

## KLSSIESDV (Synthetic active peptide - 1991 2B9c) [Peptide 1991]
[1]; FIG. 2, peptide at 100 μM
  inhibition of N-type calcium channel activity (in words): no significant inhibition
[1]; [6]
  Ca2+ current shown as a percentage (normalized to current before peptide): 94+/−1.7%

## 1987: D-isomer of Tat-NR2B9c ([dY]G[dR][dK][dK][dR][dR][dQ][dR][dR][dR][dA][dL][dS][dS][dI][dE][dS][dD][dV]) [Peptide 1987]
[1]
  Ca2+ current shown as a percentage (normalized to current before peptide): 82+/−2.2%
  inhibition of N-type calcium channel activity (in words): significant improvement in channel activity over TAT alone although still displayed some reduction

## FGRKKRRQRRRALSSIESDV (also: fluorescent label, place not given here (F-Tat-NR2B9c)) [Peptide 1995]
[1]; [6]
  Ca2+ current shown as a percentage (normalized to current before peptide): 97+/−0.2%

## CC[C@H](C)C(=O)O[C@H]1C[C@H](O)C=C2C=C[C@H](C)[C@H](CC[C@@H](O)C[C@@H](O)CC(=O)O)[C@H]21 [Pravachol ® (pravastatin), pravastatin]
[2]
  bioavailability: efficacy, low

## YGRKKRRQRRRKLSSIESDX (YGRKKRRQRRRKLSSIESD[Nva]) [Peptide 1976]
[3]; [7]
  infarct size (percent of hemisphere): significantly decreased infarct sizes

## YGRKKRRQRRRKLSSIEADA (Synthetic peptide - 1992 Tat-NR2B9c-AA) [Peptide 1992]
[1]; FIG. 2, peptide at 100 μM
  inhibition of N-type calcium channel activity (in words): significant improvement in channel activity over TAT alone although still displayed some reduction
[1]; [6]
  Ca2+ current shown as a percentage (normalized to current before peptide): 74+/−2.4%

## YGRKKRRQRRRKLSSIESDV [Tat-NR2B9c, reference compound]
[4]
  neuroprotection, infarct size: neuroprotective as seen by a reduced infarct size
[1]; 100 μM, 0.07, 10, 20, 50 Hz, FIG. 6
  frequency (use) dependence of block of Ca2+ currents: not frequency dependent
[1]; [6]
  Ca2+ current shown as a percentage (normalized to current before peptide): 68+/−1.7%
[1]; steps from −40 to +50 mV, FIG. 7
  voltage dependence of inhibition of Ca2+ current: independent of voltage
[5]
  inhibition of radiolabeled ω-Conotoxin GVIA binding to N-type Ca channels: 100%
[3]; [7]
  infarct size (percent of hemisphere): significantly decreased infarct sizes
[3]
  reduction of infarct size: equally effective in reducing infarct size
